Assay results as given in patent US20050124544A1.
Where no end group is shown, it is not given here.

What was measured:
[1] = molecular target: 2C11 human monoclonal antibody; assay: competition ELISA: 2C11 preincubated with peptide at 2 (µM per paragraph 93), then on immobilised FVIII
[2] = molecular target: 2C11 human monoclonal antibody; assay: competition ELISA: 2C11 preincubated with peptide at 0.02 (µM per paragraph 93), then on immobilised FVIII
[3] = molecular target: 2C11 human monoclonal antibody; assay: competition ELISA: 2C11 preincubated with peptide at 200 (µM per paragraph 93), then on immobilised FVIII
[4] = molecular target: 2C11 human monoclonal antibody; assay: competition ELISA: 2C11 preincubated with peptide at 20 (µM per paragraph 93), then on immobilised FVIII
[5] = molecular target: 2C11 human monoclonal antibody; assay: competition ELISA: 2C11 preincubated with peptide at 0.002 (µM per paragraph 93), then on immobilised FVIII
[6] = molecular target: 2C11 human monoclonal antibody; assay: cell-based or functional assay

| % inhibition [1] | % inhibition [2] | % inhibition [3] | % inhibition [4] | % inhibition [5] | Bethesda test: neutralization of the inhibiting activity of 2C11 (3.5 nM), IC50 [6] | Bethesda test: peptide concentration for total neutralization of 2C11 (3.5 nM) [6] | in vivo (FVIII-deficient mice): procoagulant activity of injected FVIII kept with 2C11 (16.7 nM) plus peptide 107 (650 µM) [6] | Binder |
| --- | --- | --- | --- | --- | --- | --- | --- | --- |
| 37.3% | 0% | 90.5% | 80% | 0% | 19 µM | 100 µM | 52% | Ac-SCHAWSNRRTCR (cysteine pairing not given here) [peptide 107 (…)] |
| 12.5% | 0% | 75% | 37.5% | 0% | – | – | – | Ac-RCHAWSNRKSCV (cysteine pairing not given here) [peptide 109 (…)] |
| 13.4% | 0% | 63.7% | 30.7% | 0% | – | – | – | Ac-ECGSHAWGRRCK (cysteine pairing not given here) [peptide 104 (…)] |
| 10.3% | 0% | 75.6% | 45% | 0% | – | – | – | Ac-CSKWHNRSKRHC (cysteine pairing not given here) [peptide 105 (…)] |
| 3.47% | 0% | 62.7% | 28.3% | 0% | – | – | – | Ac-KCGRWSNRSSCT (cysteine pairing not given here) [peptide 103 (…)] |
| 0% | 0% | 36.6% | 22% | 0% | – | – | – | Ac-CMKWSNRSSRWC (cysteine pairing not given here) [peptide 106 (…)] |
| 15.8% | 0% | 60.7% | 26% | 0% | – | – | – | Ac-QCHTWSNRRSCL (cysteine pairing not given here) [peptide 108 (…)] |
